Measurements as given in patent publication EP4578463A1, “ENDO-180 TARGETED ANTIBODY-DRUG CONJUGATES” (Oncomatryx Biopharma, S.L., priority 2023, dated 2025).

Experiments:
[1] = target: T1, Endo180 on cells (Endo180-expressing HT1080-WT cells; Endo180-transfected HEK293-Endo180 cells) (UniProt Q9UBG0 31-1479); experiment: flow cytometry on HT1080-WT cells
T1 construct: whole, on cells; One molecule is used for the endogenous protein on HT1080-WT and the transfected protein on HEK293-Endo180; also called uPARAP
T1 sequence (looked up): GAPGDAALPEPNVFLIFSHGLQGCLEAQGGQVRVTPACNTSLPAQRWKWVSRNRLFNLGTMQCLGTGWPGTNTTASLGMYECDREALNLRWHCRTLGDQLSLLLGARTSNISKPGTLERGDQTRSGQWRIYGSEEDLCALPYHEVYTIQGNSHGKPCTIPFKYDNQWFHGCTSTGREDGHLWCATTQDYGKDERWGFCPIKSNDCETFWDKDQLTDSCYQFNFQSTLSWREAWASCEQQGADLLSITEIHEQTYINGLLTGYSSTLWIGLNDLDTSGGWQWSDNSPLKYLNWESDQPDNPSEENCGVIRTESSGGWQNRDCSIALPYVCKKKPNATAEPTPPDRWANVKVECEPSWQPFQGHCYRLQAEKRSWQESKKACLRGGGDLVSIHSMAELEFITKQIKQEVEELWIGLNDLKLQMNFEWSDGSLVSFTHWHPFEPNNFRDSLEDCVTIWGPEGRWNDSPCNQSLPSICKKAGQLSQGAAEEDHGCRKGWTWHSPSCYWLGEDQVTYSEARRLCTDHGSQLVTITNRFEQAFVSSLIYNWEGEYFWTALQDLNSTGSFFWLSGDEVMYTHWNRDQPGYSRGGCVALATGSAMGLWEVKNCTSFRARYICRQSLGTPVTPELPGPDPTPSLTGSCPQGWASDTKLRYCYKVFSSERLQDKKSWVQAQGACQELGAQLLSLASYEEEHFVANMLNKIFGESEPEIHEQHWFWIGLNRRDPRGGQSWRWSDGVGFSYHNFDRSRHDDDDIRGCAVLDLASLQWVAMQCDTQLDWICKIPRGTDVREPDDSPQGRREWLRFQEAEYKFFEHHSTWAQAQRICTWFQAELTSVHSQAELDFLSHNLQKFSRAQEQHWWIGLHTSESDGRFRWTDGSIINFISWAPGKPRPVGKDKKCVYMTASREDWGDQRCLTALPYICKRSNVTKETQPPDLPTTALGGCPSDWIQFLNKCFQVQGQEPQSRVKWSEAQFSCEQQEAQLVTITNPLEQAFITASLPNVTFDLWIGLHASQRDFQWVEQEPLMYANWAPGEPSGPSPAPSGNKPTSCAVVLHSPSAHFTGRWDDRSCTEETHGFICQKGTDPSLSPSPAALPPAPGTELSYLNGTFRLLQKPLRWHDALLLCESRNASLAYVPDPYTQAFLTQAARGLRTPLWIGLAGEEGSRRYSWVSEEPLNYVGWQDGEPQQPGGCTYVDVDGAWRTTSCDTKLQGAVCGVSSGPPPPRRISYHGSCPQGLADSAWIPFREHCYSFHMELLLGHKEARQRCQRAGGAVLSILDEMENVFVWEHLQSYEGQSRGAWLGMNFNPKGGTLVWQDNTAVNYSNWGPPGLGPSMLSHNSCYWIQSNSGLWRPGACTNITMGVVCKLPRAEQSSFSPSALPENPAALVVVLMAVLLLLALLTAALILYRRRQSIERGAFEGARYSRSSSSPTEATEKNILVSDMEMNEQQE

[2] = target: T2, human Endo180-moFc domains I-IV (aa 31-513) (human, UniProt Q9UBG0 31-513); experiment: ELISA, immobilized huEndo180-moFc
T2 construct: also called huEndo180 (DI-IV); huEndo180-moFc DI-IV; not shown: murine Fc domain
T2 sequence: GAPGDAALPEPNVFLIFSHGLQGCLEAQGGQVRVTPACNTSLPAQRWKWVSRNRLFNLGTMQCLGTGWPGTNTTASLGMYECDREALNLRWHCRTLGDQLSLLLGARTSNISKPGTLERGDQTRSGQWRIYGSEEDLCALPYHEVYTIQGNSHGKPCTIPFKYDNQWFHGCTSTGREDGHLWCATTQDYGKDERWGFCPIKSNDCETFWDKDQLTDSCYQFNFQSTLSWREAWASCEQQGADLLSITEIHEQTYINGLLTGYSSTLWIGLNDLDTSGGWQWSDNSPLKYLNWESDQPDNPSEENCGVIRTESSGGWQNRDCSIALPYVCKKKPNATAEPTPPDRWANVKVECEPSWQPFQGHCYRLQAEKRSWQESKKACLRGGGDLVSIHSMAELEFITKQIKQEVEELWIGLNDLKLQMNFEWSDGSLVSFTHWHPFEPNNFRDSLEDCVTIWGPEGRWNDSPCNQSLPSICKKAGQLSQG

[3] = target: T3, human Endo180-moFc domains I-III (aa 31-370) (human, UniProt Q9UBG0 31-370); experiment: ELISA, immobilized huEndo180-moFc
T3 construct: also called huEndo180 (DI-III); huEndo180-moFc DI-III; not shown: murine Fc domain
T3 sequence: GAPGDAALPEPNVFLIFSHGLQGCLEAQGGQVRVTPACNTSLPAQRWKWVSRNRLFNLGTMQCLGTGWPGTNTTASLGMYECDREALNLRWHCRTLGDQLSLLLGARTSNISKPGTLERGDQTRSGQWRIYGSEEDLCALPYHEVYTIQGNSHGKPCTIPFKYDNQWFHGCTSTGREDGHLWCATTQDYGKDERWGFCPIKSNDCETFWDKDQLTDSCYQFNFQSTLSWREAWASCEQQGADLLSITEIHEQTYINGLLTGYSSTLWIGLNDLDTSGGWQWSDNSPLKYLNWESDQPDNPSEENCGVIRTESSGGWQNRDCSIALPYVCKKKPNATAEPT

[4] = target: T1, Endo180 on cells (Endo180-expressing …); experiment: flow cytometry on HEK293-Endo180 cells

B1: Human IgG1 G7V with a wildtype γ1 heavy chain (antibody, V domains shown)
VH: EVQLVESGGGLVKPGGSLRLSCAASGFTFSSYSMNWVRQAPGKGLEWVANIKPDGSERHSVDSVKGRFTISRDNSKNSLYLQMNSLRAEDTAVYYCARPGAGRLDYWGQGTLVTVSS
VL: SSELTQDPAVSVALGQTVRITCQGDSLRSYYASWYQQKPGQAPVLVVYGKNNRPSGIPDRFSGSSSGNTASLTITGAQAEDEADYYCNSRDSSGNPWAFGGGTKVTVLG
notes: Naked antibody, made in HEK293-6E (lab scale) or CHO (1 L scale); also called IgG G7V; OMTX007-G7V
[1]
  EC50: 0.4 nM
[2]
  EC50: 0.4 nM
[3]
  EC50: 0.5 nM
[4]
  EC50: 1.5 nM
